Measurements published in the DeepSol protein solubility set.

Experiment: soluble on expression in E. coli; label from the status in PepcDB or PDB records

Row | Sequence | soluble on expression in E. coli
1 | MGSDKIHHHHHHMDIKQLKFLIALDQTRHFGQAAALCHITQPTLSMRLRNLEDELDLVLVKRGQRFEGFTEAGERILAWARTLLAAHDGLQAEAASCRGQVVGSLRLGTVPLASFNPMHLLLPLREKYPELHFQLSSLSSEQVIDGLSRNQLDLGICYLDQVNTSFFEVIELGTTTMGLLHDTRHFQFTSDRLRWDELGDIPLGLLSKGMHYRQSLDLSFRSRGLEPNAVLESDSSFQLIQAINTGICCAIMPLDCGLEDLSEHLRIVPVADAAIHSPVGLLLRRSEPRSAIAEQCFAEARGLFQAS | not soluble
2 | MKTVMATGTFDIIHPGHGFFLEEARKLGGEDARLVVVLARDSTVRARKRTPIVGEKQRLEVVRMLKPVDEAYLGSETDMFEIVHRIKPDIIAIGPDQKFDVDELRDELRRRGLGCEVRRIEKYRDAELDSTCKIIKRIRSMEFDEDSLKNC | not soluble
3 | MRASPTSPPEQVVVDASAMVDLLARTSDRCSAVRARLARTAMHAPAHFDAEVLSALGRMQRAGALTVAYVDAALEELRQVPVTRHGLSSLLAGAWSRRDTLRLTDALYVELAETAGLVLLTTDERLARAWPSAHAIG | soluble
4 | MARTVDLELEAQIDILRDNNKKYENILKLAQTLSTQLFQMVHTQKQLGDAFADLSLKSLELHEKFGYNADTQKLLAKNGETLLGAINFFIASVNTLVNKTIEDTLMTVKQYENARVEYDAYRTDLEELNLGPRDANTLPKIEQSQHLFQIHKEKYDKMRSDVSVKLKFLEENKVKVLRNQLVLFHSAVAAYFAGNQKQLELTLKQFHVRLKTPGVDAPSWLEEQ | soluble
5 | MGSDKIHHHHHHMNLATPSQMTAASIETFDATSCAAFSACYPETPHKLVHRLRDHPLLQLDALAALGEELPAHSVEYNRADLPIGLNGGKAPPNGIGIGETIRNIASTGSWAALKNVEQVPAYAALLGELLEGLRPTIEARTGAMLKPQGFVFVTSPDGVTPYHFDPEHNILLQLMGSKVMTMFPAGDSRFAPDETHETYHTGGGRELFWRDELLGHGRQWPLSPGEALYVPVMSPHFVTNGPSPSVSLSITWRSEWSFAEADARAFNGLLRSMGLKPGAPRRWPASNRAKAMCWRLYGKVRGLR | not soluble
6 | MGSDKIHHHHHHMSVPRWVAERTGLPRTAHDAGTIGAAGCTVNRFAVALMPDSGGHPRKPIAGVDAPPPHLLLVARRMTRPGEHMALTTYTPVITVFAAGREWTLERAADLQTLWDNMVEADFGDDERLPYWTELWPSSLVLADWLHDNAGRIRGRTCLDMGCGLGLCSLVGQWLGARVTGMDYEPEALFHARRNAERNRVPQPLWTVMDWRAPAVRRHAADLVWGGDIMYERRFVTPVLDFLDHVLAPCGAAWVAEPGRTVYNHFRETLDARGWHARRVLSSETASLYEQPESVTVHLWEITR | not soluble
7 | ENGRLVELPDNDKSDALQFLATILEAVPSIPAGSNIVEIVLEHEKNSNTSLGFGWACPHARVNFDGDLCCAIGWSPAGIDYGIAGEPLVRLVVMFFVPENQRNTYLKEVSTLARVLKSNPEFQNLEPIGDLDQVRNTLLDMTHQAMSE | not soluble
8 | MKAMKSLGADLDKALGRLSGGLYIITAKKGDVSSAMLASWVNQASFKPLGFSIAVAKDRAIESLMQVGDRFVLNVLEEGNYQPLMRHFLKRFAPGADRFEGVKTQPAENGAPILGDALAYMECEVVSRMDCGDHWAVYSTVYAGRVSKSEALTAVHHRKVGNHYLEHHHHHH | soluble
9 | MGSDKIHHHHHHMPKRFEWLFYAFIAFALYSCNGSSRGKGTEVETVSIDTADFNFPVRFEYAKGIQTVNHTGYKTVYIFHPDKPDTMAVYILYPRDSKRPVARHPKALYIPVPARTIACLSTTQIGSLPLLDQTDKLVGCINLKNICNADIRNRIKKGYVQEIGTGMTKNIEQIAGLRPEILLQDLFHVSDKDEELIASGINTVLYNEWKERDLLGRAEWMKLTAMLLSCNRRAHEVFEQIESEYAEARKLVAEKTDTIAIMYGQDYNGTWYLPGEYSYSTAMFRDARVSFDYAAGKVSSQPCSFEYIFSRHRHAEIWICTMMGNIKTMDEFLALNERYRHFDATQTGKVYIDRKRVNENGGNDYWESGLYRPDLLLKDIIKITRPELLPEYETSYWIELKRP | not soluble
10 | MKKKIGLLVMAYGTPYKEEDIERYYTHIRRGRKPSPEMLEDLTERYRAIGGISPLATITLEQAKKLEKRLNEVQDEVEYHMYLGLKHIEPFIEDAVKEMHNDGIQDAIALVLAPHYSTFSVKSYVGRAQEEAEKLGNLTIHGIDSWYKEPKFIQYWVDAVKSIYSGMSDAEREKAVLIVSAHSLPEKIIAMGDPYPDQLNETADYIARGAEVANYAVGWQSAGNTPDPWIGPDVQDLTRELNEKYGYTSFVYAPVGFVAEHLEVLYDNDFECKVVTDEIGAKYYRPEMPNASDAFIDCLTDVVVKKKESVM | soluble
11 | MSGYACNQPQLYSQCNCPSFCSGYMQQQPQYYQSPCGYSSGCSGGSGGGYYPRRRHHKHKKPRRKFRFDSDEDEDLPPPPPRKSAKISRVHSEEQGFIEEKPRVTETTKTDSSWENEDLWEKKFVTESTHTKAEEKLDSEEFPEITSEEIEAAMRRKTTLPPRVVQPQPVAPAGGGLGGLGLGNGGLFGISSGVGVGVPGVGPIGVSSGLGIGK | not soluble
12 | MATMARWERIVEGVKSIALIKRKIISRGKRIALLVDGPNILRKELGVHLEDIVEALSSLGNIRVAKVILNQYAPQSLIEAVSNQGFEPVIVAGEIGVKLAVEAMREVYNPNIDIIALATRNTEFVPIILKAKEKGKETAIIGVEPGFSSALKHAADYVIVLESRGELSEEGNIEDIEEGKGEGGRGRRKNDRLDN | soluble
13 | SNSLHWPTSLPSGDAFSSVGTHRFVQKVEEMVQNHMTYSLQDVGGDANWQLVVEEGEMKVYRREVEENGIVLDPLKATHAVKGVTGHEVCNYFWNVDVRNDWETTIENFHVVETLADNAIIIYQTHKRVWPASQRDVLYLSVIRKIPALTENDPETWIVCAFSVDHDSAPLNNRCVRAKINVAMICQTLVSPPEGNQEISRDNILCKITYVANVNPGGWAPASVLRAVAKREYPKFLKRFTSYVQEKTAGKPILF | soluble
14 | ARQVICWCFTLNNPLSPLSLHDSMKYLVYQTEQGEAGNIHFQGYIEMKKRTSLAGMKKLIPGAHFEKRRGTQGEARAYSMKEDTRLEGPWEYGE | soluble
15 | GPGSMSAAVTWLQNSLGIDVTGEWARHVHLNVGGTLYTTRRYTLRELKDHRIFGPILDGHAHRCEDGSFLIDRDGSLFRYIIAYLRDGRLSVPENFAEWDMLLQEVRYYELPAMEKSVMDHFEFQQSVFRRQLPHGVYVWWPPASSQIEEGATVKAAPCDCPASVPPPPLSLFALPITDSATGRCEARGATEDQTRALEKVHVEAAADAATRSSAGAAPSSCSSASMSVRIVPPLPGLTVEMSSGRRVMFRETQVLQDLDQLVTVLLTAYGFSIQHWDTERGRVLLTLPGLM | not soluble
16 | MIRIDVVLPAYRPGQGWEREAISRLTALSDSIPDVTFRIFIVPDGSNEGHSDEVRSHWATSPWEVIYCDYAKNRGKGFAVRYGVGQTDAPFVLYTDYDLPFTLDSYKQVIEALLEGADVVISRREPESYGKKIRFKRKMLSDFSHFVNKFFFLPTTDTQGGLKGFSSTGRFIFLQTRIDSFLFDTEFICLAKRKKVCIAVVSGSIRPDISLSVMKAKTILREVYKIPKLIKARWFS | not soluble
17 | MKEHVKDKKTAIMGAALKLFTERGFHGTSTAQISKNAGVATGTLFNYFPTKEDLINSLYFEVKGNLGHSMGVGLEAETTFQDKLKRIWSNLVNWGVNNQEEFLFVGQFCSSPYITKFTRDEVMKEYVFLHNFVDEGIKTGEVRDFPAELVIAMFYQGSREVVNLILDSDSSLDKNKIIADGFQILWRGLAKV | not soluble
18 | MAGDPMVLKRIRDMFVASVHEGLDKMENPKVMLNQYVRDMESDIAKAKQTIVKQHTIAYQFKKKYEEAAEVAGKRKNQAQLAFDAGEEELAKKALTEMKYLEGKAAEHKASYEQANSQLADLKEQLAALETKLQDVKDKKQALIARANAAKAKEHMNTTFDKIDSESAYREFLRIENRIEEMEIRANYSKSAEAGTELTRKEFADDVEAEIEKMRTLSLQKSDQTKAANELEHHHHHH | soluble
19 | MASIKLKFRPSSVKGKKGVLSYQIIHYRLTRLIKTSYRIMPSEWDDSTGSLLISTQSECKARLLLIRDQTNWEMTRLQGIINDLERTGVEYTIDDIVASFRKIPSVESVFNFMQRCINKLERQKRGRTAEGYTSTMNSFIQFRKNEDLSFEAFDSELMEMYEAYLKEKGLVKNSTSYYMRIWRSVYNLAVEQGYTTDKKPFKHVYTGIDKTVKRAVPFKIIKMIKELDLSFEPQLELARDIFLFSFYTRGMSFIDMAHLKKSNLQNGILTYSRKKTGQRLTILWEELMQEIVDKYKDDTSEYLLPILRYCDINDRKQYKLRAKQIGRGLNKIGLRLELKAPLTFYVARHSWASIAQDRKVSTDIIREGLGHDNEKTTHIYLASISTSQIDRANQIILRGL | not soluble
20 | MEAAANRQLIVSFTPYEWKYVRQLFRSRRIEDVKECVIILATWISRTGENTPVAISCSHVLLQAIYAELLSTGMCESERYMAIDDLRSKHGYAIVRFVNYVNEMGQTGATLKNMVHAVKSFGIPKKIVDIRHAITHQNCPDIAELRYATNFCLDWLWKNFWLSDARVAMNSAAATNSSKNPTSSSEFGGQRGREQQYVSSLRAFNTWRVKNRQLTTELEWSEVAELLALKHHILLDSTGFLTCFMRDGHLIQTPGQWKNWKLPVTCSNDNWQIPEEIQAFWEPLFHVMFSLKLGAEIVVAFLWRLREPMIKDMTRHQITAYVRMIVQQFADADVFSDEEWYKVLDHLLPVAKNFSTEFIELVMARCTTLAHKRKKQIRQILNISTKSHVESPSTSSSDTVHTVSDLQKLLKKSSKSVVKSEPVTSNADGNRTGIELCDVAAWAEVPFGMAPGQRIETFTVVLDHHGSDKSRKRRAFDAAITLDED | not soluble
21 | MSLRPRMIDWLQARNIGVAVSQSYLAPVVDRAARQEQYRRMVQRSEPLISAYMGVRLPQPIDRIYVFDRAEWIEANLAAFQSLFAPLEELYDEVSARQGMVGILIGQLNSQLIGMQVGALIGFLARRVLGQYDLGLLSPDPDLRGALYFVEPNIARICAQLGLNGDDFRMWIALHETTHVFEFEAFPWVRAYFQDLLRQFIGRVNDQAAMLSVGIVRLIERLLQGQPIDHHWIELMLTPEQREIFTRMQALMSVVEGYSNHIMNAIGAQLLPSYPSIEARVRQRQLRRPLIEEAFNRITGMDLKLAQYQQGEAFINAVVAACGADFANRIWERPENLPTMDEIRAPHRWIARMSGEGHHHHHH | soluble
22 | MSLHFLYYCSEPTLDVKIAFCQGFDKQVDVSYIAKHYNMSKSKVDNQFYSVEVGDSTFTVLKRYQNLKPIGSGAQGIVCAAYDAVLDRNVAIKKLSRPFQNQTHAKRAYRELVLMKCVNHKNIISLLNVFTPQKTLEEFQDVYLVMELMDANLCQVIQMELDHERMSYLLYQMLCGIKHLHSAGIIHRDLKPSNIVVKSDCTLKILDFGLARTAGTSFMMTPYVVTRYYRAPEVILGMGYKENVDIWSVGCIMGEMVRHKILFPGRDYIDQWNKVIEQLGTPCPEFMKKLQPTVRNYVENRPKYAGLTFPKLFPDSLFPADSEHNKLKASQARDLLSKMLVIDPAKRISVDDALQHPYINVWYDPAEVEAPPPQIYDKQLDEREHTIEEWKELIYKEVMNSEEKTKNGVVKGQPSPSGAAVNS | soluble
23 | MLQVCCYTSEGYKYAVGIDLVRFFDTVNHSFLLRILSRTINDGRVISLIHKYLTSGVMIGKHYEPSIEGTPQGAPLSPLLSNILLNELDKELERRGHCFVRYADDSMILCKSKRSAERVCSSITDFSFYFTKGKCRLCVHKTTKEKFKRKVKSLTRRSNSMGYAQRKEILWQTFRGWIGYFKYADMRSLLIPLDQWYRRHLRMCIWKCWKRVKTRFSNLQKCGIPKGKALEHHHHHH | soluble
